From the supplement of paper PMC7877785
± gives the uncertainty stated by the source.

Assay: self-splicing fitness, log relative to wild type (ln ratio); higher = more splicing; Tetrahymena group I intron in knt gene, E. coli kanamycin selection, DiMSum; sequences stand for … in CUCUCU…GGAGGGAAAAGUUAUCAGGCAUGCACCUGGUAGCUAGUCUUUAAACCAAUAGAUUGCAUCGGUUUAAAAGGCAAGACCGUCAAAUUGCGGGAAAGGGGUCAACAGCCGUUCAGUACCAAGUCUCAGGGGAAACUUUGAGAUGGCCUUGCAAAGGGUAUGGUAAUAAGCUGACGGACAUGGUCCUAACCACGCAGCCAAGUCCUAAGUCAACAGAUCUUCUGUUGAUAUGGAUGCAGUUCACAGACUAAAUGUCGGUCGGGGAAGAUGUAUUCUUCUCAUAAGAUAUAGUCGGACCUCUCCUUAAUGGGAGCUAGCGGAUGAAGUGAUGCAACACUGGAGCCGCUGGGAACUAAUUUGUAUGCGAAAGUAUAUUGAUUAGUUUUGGAGUACUCGUGGUCG
Summary of the method: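 Library with all eight P1ex-region intron nucleotides randomised, intron inside the knt kanamycin-resistance gene on pET-22b(+), in E. coli BL21(DE3). Cells grew overnight at 37°C or 30°C on LB agar with or without 25 μg/mL kanamycin (plus 100 μg/mL carbenicillin, 50 μM IPTG, 0.2% rhamnose), in six replicate transformations. Pooled colonies were amplicon-sequenced on Illumina HiSeq 2500. DiMSum fitness is the error-weighted combination of wild-type-normalised replicate fold changes, kanamycin versus none.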

Sequence	self-splicing fitness (ln) (30 °C)	self-splicing fitness (ln) (37 °C)
CCAUAGCAAUAUUACGCGUC	-3.04 ± 0.33	-4.21 ± 0.46
CCAUAGCAAUAUUACGCUAA	-3.38 ± 0.22	-2.75 ± 0.32
CCAUAGCAAUAUUACGCUAG	-3.8 ± 0.47	-1.82 ± 0.23
CCAUAGCAAUAUUACGCUCC	-2.97 ± 0.49	
CCAUAGCAAUAUUACGGCAA	-3.37 ± 0.28	-2.9 ± 0.3
CCAUAGCAAUAUUACGGCGA	-2.03 ± 0.26	-1.92 ± 0.23
CCAUAGCAAUAUUACGGCUU	-3.97 ± 0.31	-2.19 ± 0.2
CCAUAGCAAUAUUACGGGAU	-3.65 ± 0.23	-2.86 ± 0.24
CCAUAGCAAUAUUACGGUUG	-1.43 ± 0.082	-0.827 ± 0.12
CCAUAGCAAUAUUACGUAUU	-3.88 ± 0.19	-2.64 ± 0.21
CCAUAGCAAUAUUACGUGCA	-2.77 ± 0.19	-3.02 ± 0.24
CCAUAGCAAUAUUACGUUCG	-0.579 ± 0.08	-0.674 ± 0.1
CCCAAGCAAUAUUACGAAAA	-2.96 ± 0.21	-2.1 ± 0.22
CCCAAGCAAUAUUACGAAAU	-3.19 ± 0.25	-2.35 ± 0.18
CCCAAGCAAUAUUACGAACG	-3.72 ± 0.25	-3.46 ± 0.2
CCCAAGCAAUAUUACGAAUC	-2.81 ± 0.24	-2.36 ± 0.27
CCCAAGCAAUAUUACGAAUG	-3.88 ± 0.22	-2.8 ± 0.18
CCCAAGCAAUAUUACGACCU	-3.38 ± 0.26	-2.44 ± 0.25
CCCAAGCAAUAUUACGCAAU	-4.46 ± 0.31	-1.16 ± 0.17
CCCAAGCAAUAUUACGCACC		-2.31 ± 0.33
CCCAAGCAAUAUUACGCAGA	-2.74 ± 0.21	-2.72 ± 0.14
CCCAAGCAAUAUUACGCAUC		-1.32 ± 0.21

Sequence	self-splicing fitness (ln) (30 °C)	self-splicing fitness (ln) (37 °C)
CCCAAGCAAUAUUACGCGAU	-3.93 ± 0.21	-2.5 ± 0.19
CCCAAGCAAUAUUACGCGCC		-1.59 ± 0.34
CCCAAGCAAUAUUACGCGGA	-1.6 ± 0.093	-0.459 ± 0.097
CCCAAGCAAUAUUACGCUAC	-4.17 ± 0.39	-3.04 ± 0.38
CCCAAGCAAUAUUACGGAAU	-3.88 ± 0.26	-2.94 ± 0.22
CCCAAGCAAUAUUACGGGAU	-3.41 ± 0.096	-2.47 ± 0.12
CCCAAGCAAUAUUACGGGUG	-3.36 ± 0.093	-1.79 ± 0.077
CCCAAGCAAUAUUACGGUGC	-3.6 ± 0.27	-2.26 ± 0.22
CCCAAGCAAUAUUACGGUGG	-3.69 ± 0.15	-2.71 ± 0.15
CCCAAGCAAUAUUACGUAAC	-3.6 ± 0.18	-2.52 ± 0.21
CCCAAGCAAUAUUACGUAGA	-3.94 ± 0.17	-3.16 ± 0.18
CCCAAGCAAUAUUACGUCAG	-4.12 ± 0.17	-1.97 ± 0.13
CCCAAGCAAUAUUACGUCAU	-2.95 ± 0.14	-2.74 ± 0.13
CCCAAGCAAUAUUACGUCCU	-3.99 ± 0.3	-2.93 ± 0.29
CCCAAGCAAUAUUACGUCGG	-3.63 ± 0.12	-2.51 ± 0.14
CCCAAGCAAUAUUACGUUAA	-3.68 ± 0.17	-2.62 ± 0.14
CCCAAGCAAUAUUACGUUAC	-4.13 ± 0.15	-2.37 ± 0.13
CCCAAGCAAUAUUACGUUGU	-3.3 ± 0.095	-2.43 ± 0.11
CCCCAGCAAUAUUACGAAAA	-3.6 ± 0.26	-2.57 ± 0.26
CCCCAGCAAUAUUACGAAGG	-4.06 ± 0.17	-2.51 ± 0.15
CCCCAGCAAUAUUACGAAUG	-4.11 ± 0.21	-2.3 ± 0.15
